In patent US20140275490A1 (Astellas, published 2014):

Key:
human IL-23R [1] = target: T1, human IL-23R (human, UniProt Q5VWK5 24-629); test: cell-based or functional assay
T1 sequence: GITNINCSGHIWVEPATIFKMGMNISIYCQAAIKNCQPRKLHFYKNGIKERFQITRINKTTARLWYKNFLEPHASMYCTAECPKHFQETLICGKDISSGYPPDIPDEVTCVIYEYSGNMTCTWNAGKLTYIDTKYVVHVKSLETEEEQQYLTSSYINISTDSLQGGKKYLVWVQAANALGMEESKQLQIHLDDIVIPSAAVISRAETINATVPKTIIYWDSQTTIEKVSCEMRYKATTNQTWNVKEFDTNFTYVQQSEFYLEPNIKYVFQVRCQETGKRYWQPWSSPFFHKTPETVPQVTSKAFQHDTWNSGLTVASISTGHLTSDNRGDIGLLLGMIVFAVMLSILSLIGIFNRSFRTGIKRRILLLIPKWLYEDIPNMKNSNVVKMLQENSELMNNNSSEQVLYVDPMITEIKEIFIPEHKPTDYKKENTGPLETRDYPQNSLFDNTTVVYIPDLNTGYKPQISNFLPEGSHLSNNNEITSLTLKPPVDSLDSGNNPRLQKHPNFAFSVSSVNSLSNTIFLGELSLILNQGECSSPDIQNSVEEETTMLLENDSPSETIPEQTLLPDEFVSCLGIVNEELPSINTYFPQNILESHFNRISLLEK

[2] = target: T2, monkey IL-23R-mouse Fc fusion protein (monkey; mouse); test: antigen ELISA, monkey IL-23R-Fc immobilized, HRP anti-human IgG, chemiluminescence
T2 construct: extracellular domain; also called monkey IL-23R-Fc fusion protein
Procedure: (§1) The present inventors used an antigen ELISA to measure the antigen-specific binding activities of the fully human antibodies constructed in Example 6. A human or monkey IL-23R-Fc fusion protein was immobilized onto a Maxisorp 384-well plate (Nunc, Inc.) at a concentration of 500 ng/mL. A blocking agent (Blocking One; Nacalai Tesque, Inc.) was added thereto and allowed to stand at room temperature for 1 hour, followed by washing twice with a wash buffer [TPBS: 0.05% Tween-20-containing phosphate buffered saline (PBS)], and each of the purified antibody samples was suitably serially diluted and added thereto. Incubation was performed at room temperature for 1 hour, followed by washing four times with TPBS, and HRP-labeled anti-human IgG antibody (DAKO) which was 2000-fold diluted with dilution buffer was added as secondary antibody. Incubation was performed at room temperature for 1 hour, followed by washing four times with a washing buffer. A BM-chemiluminescence ELISA substrate (POD) (Roche Diagnostics) that is a reagent for detecting chemiluminescence was added thereto and the amount of chemiluminescence was measured with an EnVision counter (Perkin Elmer). Each of the antibodies was tested in duplicate, and the EC 50 was analyzed by curve fitting.

human IL-23R [3] = target: T1, human IL-23R; test: cell-based or functional assay; remark: listed apart in the source
[4] = target: T3, human IL-23R-mouse Fc fusion protein (human; mouse, UniProt Q5VWK5 24-353); test: antigen ELISA, human IL-23R-Fc immobilized, HRP anti-human IgG, chemiluminescence
T3 construct: Expressed in FreeStyle 293 cells, purified; immobilized on the ELISA plate at 500 ng/mL; also called human IL-23R-Fc fusion protein; not shown: Fc region of mouse immunoglobulin (IgG2a) as encoded by the vector pFUSE-mIgG2A-Fc2 (InvivoGen); limits and any linker r
T3 sequence: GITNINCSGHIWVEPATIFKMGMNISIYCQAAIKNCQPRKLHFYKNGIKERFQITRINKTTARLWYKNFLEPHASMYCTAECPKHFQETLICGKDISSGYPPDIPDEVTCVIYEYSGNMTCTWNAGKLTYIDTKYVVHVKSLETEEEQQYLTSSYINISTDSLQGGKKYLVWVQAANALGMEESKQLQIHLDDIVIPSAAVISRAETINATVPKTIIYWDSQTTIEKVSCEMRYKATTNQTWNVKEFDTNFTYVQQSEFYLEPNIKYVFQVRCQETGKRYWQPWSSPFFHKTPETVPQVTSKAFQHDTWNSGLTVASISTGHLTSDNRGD
Procedure: as §1

[5] = target: T2, monkey IL-23R-mouse Fc fusion protein; test: antigen ELISA, monkey IL-23R-Fc immobilized, HRP anti-mouse Ig, chemiluminescence
Procedure: (§2) The present inventors used an antigen ELISA to measure the antigen-specific binding activity of the antibody. The human or monkey IL-23R-Fc fusion protein was immobilized onto a Maxisorp 384-well plate (Nunc, Inc.) at a concentration of 500 ng/mL. A blocking agent (Blocking One; Nacalai Tesque, Inc.) was added thereto and allowed to stand at room temperature for 1 hour, followed by washing twice with a wash buffer [TPBS: a phosphate buffered saline (PBS) containing 0.05% Tween-20], and the purified antibody samples were suitably serially diluted and added thereto. Incubation was performed at room temperature for 1 hour, followed by washing four times with TPBS, and HRP-rabbit anti-mouse Ig antibody (DAKO) which was 2000-fold diluted with a dilution buffer was added. Incubation was performed at room temperature for 1 hour, followed by washing four times with a wash buffer. A BM-chemiluminescence ELISA substrate (POD) (Roche Diagnostics), which is a reagent for detecting chemical luminescence, was added, and the amount of chemiluminescence was measured with an EnVision counter (Perkin Elmer). Each antibody was tested in duplicate and the EC50 was analyzed by curve fitting. In this test, a fusion antibody obtained by replacing the Fc region of the known humanized anti-human IL-23R antibody hum20D7 (patent document 1) with the mouse Fc region (hereinafter referred to as hum20D7-mFc) was used as a comparative antibody. Also, the reason why the hum20D7 was fused with the mouse Fc region to prepare a fusion protein was to use anti-mouse Ig antibody as secondary antibody, and the mouse Fc region could be recognized by the anti-mouse Ig antibody, thereby rendering it possible to measure activity.

[6] = target: T3, human IL-23R-mouse Fc fusion protein; test: antigen ELISA, human IL-23R-Fc immobilized, HRP anti-mouse Ig, chemiluminescence
Procedure: as §2

B1: fully human antibody 25-3 (antibody, human IgG1, kappa, V domains shown)
VH: QVQLQESGPGQVKPSQTLSLTCSVSGGSIDSGDHYWTWIRQHPGEVLEWIGYIYSSGHTYYSPSLKSRLTMSLDTSKNQFSLRLSSVTAADTAVYYCARVGDYEWFDTWGQGTLVTVSS
VL: DIVMTQSPDSLAVSLGERATINCKSSQTILYPSNNMNYLGWYQQRAGQSPRLLIYWASTRESGVPDRFSGSGSGTDFTLTISSLQAEDVAVYYCQQYYSSLPTFGQGTKVEIKR
notes: Human Ig gamma1 / human kappa constant regions; also called 25-3 (fully human); fully human 25-3 antibody
IC50, IL-23-stimulated STAT3 phosphorylation in CD4 lymphocytes of human whole blood (human IL-23R [1]): 0.0007 µg/mL
EC50 [2]: 0.0112 µg/mL
IC50, inhibition of human IL-23-inducible Kit-225 cell proliferation (human IL-23R [3]): 0.0035 µg/mL
EC50 [4]: 0.0195 µg/mL

B2: 25-3 (chimeric) (antibody, V domains shown)
VH: QVQLQESGPGQVKPSQTLSLTCSVSGGSIDSGDHYWTWIRQHPGEVLEWIGYIYSSGHTYYSPSLKSRLTMSLDTSKNQFSLRLSSVTAADTAVYYCARVGDYEWFDTWGQGTLVTVSS
VL: DIVMTQSPDSLAVSLGERATINCKSSQTILYPSNNMNYLGWYQQRAGQSPRLLIYWASTRESGVPDRFSGSGSGTDFTLTISSLQAEDVAVYYCQQYYSSLPTFGQGTKVEIKR
EC50 [5]: 0.028 µg/mL
EC50 [6]: 0.021 µg/mL

B3: fully human antibody 30-15 (antibody, human IgG1, kappa, V domains shown)
VH: QVQLVQSGAEVKKPGASMKVSCKVSGYTLNELSIHWVRQAPGKGLEWMGGFDPEHGETVYAQNFQDRVTLTEDTSTDTSYMGLNNLRSDDTAVYYCAAESYGDYEFWGQGTLVTVSS
VL: DIQMTQSPSSVSASVGDRVTITCRASQGINNWLAWYQQKPGKAPKVLIYTASSLQSGVPSRFSGSGSGTDFTLTISSLQPEDFATYYCQQANSHPWTFGQGTKVEIKR
notes: Human Ig gamma1 / human kappa constant regions; also called 30-15 (fully human); fully human 30-15 antibody
IC50, IL-23-stimulated STAT3 phosphorylation in CD4 lymphocytes of human whole blood (human IL-23R [1]): 0.013 µg/mL
EC50 [2]: 0.0076 µg/mL
IC50, inhibition of human IL-23-inducible Kit-225 cell proliferation (human IL-23R [3]): 0.0014 µg/mL
EC50 [4]: 0.0118 µg/mL

B4: 30-16 (chimeric) (antibody, V domains shown)
VH: QVQVVQSGAEVKKPGASVKVSCKVSGYTLIELAIHWVRQVPGKGLEWMGGFDPEHGETIYAQKFQGRVTMTEDTSTDTAYMELNNLRSEDTAVYYCAILEAGDLDCWGQGTLVTVSS
VL: DIQMTQSPSSVSASVGDRVTITCRASQGISNWLAWYQQKPGKAPKVLIYTASSLQSGVPSRFSGSGSGTDFTLTVSGLQPEDFGTYYCQQANSFPFTFGPGTKVDIKR
EC50 [5]: 0.069 µg/mL
EC50 [6]: 0.019 µg/mL

B5: fully human antibody 30-16 (antibody, human IgG1, kappa, V domains shown)
VH: QVQVVQSGAEVKKPGASVKVSCKVSGYTLIELAIHWVRQVPGKGLEWMGGFDPEHGETIYAQKFQGRVTMTEDTSTDTAYMELNNLRSEDTAVYYCAILEAGDLDCWGQGTLVTVSS
VL: DIQMTQSPSSVSASVGDRVTITCRASQGISNWLAWYQQKPGKAPKVLIYTASSLQSGVPSRFSGSGSGTDFTLTVSGLQPEDFGTYYCQQANSFPFTFGPGTKVDIKR
notes: Human Ig gamma1 / human kappa constant regions; also called 30-16 (fully human); fully human 30-16 antibody
IC50, IL-23-stimulated STAT3 phosphorylation in CD4 lymphocytes of human whole blood (human IL-23R [1]): 0.0045 µg/mL
EC50 [2]: 0.0108 µg/mL
IC50, inhibition of human IL-23-inducible Kit-225 cell proliferation (human IL-23R [3]): 0.0023 µg/mL
EC50 [4]: 0.0165 µg/mL

B6: 30-15 (chimeric) (antibody, V domains shown)
VH: QVQLVQSGAEVKKPGASMKVSCKVSGYTLNELSIHWVRQAPGKGLEWMGGFDPEHGETVYAQNFQDRVTLTEDTSTDTSYMGLNNLRSDDTAVYYCAAESYGDYEFWGQGTLVTVSS
VL: DIQMTQSPSSVSASVGDRVTITCRASQGINNWLAWYQQKPGKAPKVLIYTASSLQSGVPSRFSGSGSGTDFTLTISSLQPEDFATYYCQQANSHPWTFGQGTKVEIKR
EC50 [5]: 0.016 µg/mL
EC50 [6]: 0.017 µg/mL

B7: fully human antibody 30-18 (antibody, human IgG1, kappa, V domains shown)
VH: QVQLVQSGAEVKKPGASVKVSCKVSGYTLNELSIHWVRQAPGKGLEWMGGFDPEHSETLYAQNFQDRLTLTEDTSTETACMELNSLRSDDTAVYYCAAESYGDYEFWGQGTLVTVSS
VL: DIQMTQSPSSVSASVGDRVTITCRASQDISSWLAWYQQKPGKAPKVLIYTASSLQSGVPSRFSGSGSGTDFTLTISSLQPEDFATYYCQQANSHPWTFGQGTKVEIKR
notes: Human Ig gamma1 / human kappa constant regions; also called 30-18 (fully human); fully human 30-18 antibody
EC50 [2]: 0.0084 µg/mL
IC50, inhibition of human IL-23-inducible Kit-225 cell proliferation (human IL-23R [3]): 0.0033 µg/mL
EC50 [4]: 0.0136 µg/mL

B8: fully human antibody 32-28 (antibody, human IgG1, kappa, V domains shown)
VH: QVHLVQSGTEVRKPGASVKVSCKVSGYTLNELAIHWVRQAPGKGLEWMGGFDPEHGEIIYAQRFQGRVTLPEDTSTDTAYLDLFNLRSEDTAVYFCATEAAPFDYWGQGTLVIVSS
VL: DIQMTQSPSTLSASVGDRVTITCRASQSLSSWLAWYQQKPGKAPKLLIYKASSLESGVPSRFSGSGSGTDFTLTISSLQPDDFATYYCQQYDIYPRTFGQGTKVEIKR
notes: Human Ig gamma1 / human kappa constant regions; also called 32-28 (fully human); fully human 32-28 antibody
IC50, IL-23-stimulated STAT3 phosphorylation in CD4 lymphocytes of human whole blood (human IL-23R [1]): 0.00016 µg/mL
EC50 [2]: 0.0171 µg/mL
IC50, inhibition of human IL-23-inducible Kit-225 cell proliferation (human IL-23R [3]): 0.0014 µg/mL
EC50 [4]: 0.0131 µg/mL

B9: 32-28 (chimeric) (antibody, V domains shown)
VH: QVHLVQSGTEVRKPGASVKVSCKVSGYTLNELAIHWVRQAPGKGLEWMGGFDPEHGEIIYAQRFQGRVTLPEDTSTDTAYLDLFNLRSEDTAVYFCATEAAPFDYWGQGTLVIVSS
VL: DIQMTQSPSTLSASVGDRVTITCRASQSLSSWLAWYQQKPGKAPKLLIYKASSLESGVPSRFSGSGSGTDFTLTISSLQPDDFATYYCQQYDIYPRTFGQGTKVEIKR
EC50 [5]: 0.024 µg/mL
EC50 [6]: 0.018 µg/mL

B10: fully human antibody 34-58 (antibody, human IgG1, kappa, V domains shown)
VH: QVHLVQSGTEVRKPGASVKVSCKVSGYTLNELAIHWVRQAPGKGLEWMGGFDPEHGEIIYAQRFQGRITLPEDTSTDTAYMDLVNLRSEDTAVYFCTTEAAPFDYWGQGSLVIVSS
VL: DIQMTQSPSTLSASVGDRVTITCRASQSLSNWLAWYQQKPGKAPKLLIYKASSLESGVPSRFSGSGSGTDFTLTISGLQPDDFATYYCQQYDIYPRTFGQGTKVEIKR
notes: Human Ig gamma1 / human kappa constant regions; also called 34-58 (fully human); fully human 34-58 antibody
IC50, IL-23-stimulated STAT3 phosphorylation in CD4 lymphocytes of human whole blood (human IL-23R [1]): 0.00051 µg/mL
EC50 [2]: 0.0148 µg/mL
IC50, inhibition of human IL-23-inducible Kit-225 cell proliferation (human IL-23R [3]): 0.0037 µg/mL
EC50 [4]: 0.0146 µg/mL

B11: fully human antibody 32-36 (antibody, human IgG1, kappa, V domains shown)
VH: QVQMVQSGAEVKRPGASVKVSCKVSGYTLNELGIHWVRQAPGKGLEWMGGFDPEHGKIIYAQRFQGRLTMPEDTSTDTAYMELSSLTSEDTAVYYCATVAAPLDYWGQGTLVTVSS
VL: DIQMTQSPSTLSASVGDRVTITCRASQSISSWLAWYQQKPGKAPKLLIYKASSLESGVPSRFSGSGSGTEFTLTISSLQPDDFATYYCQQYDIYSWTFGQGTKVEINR
notes: Human Ig gamma1 / human kappa constant regions; also called 32-36 (fully human); fully human 32-36 antibody
IC50, IL-23-stimulated STAT3 phosphorylation in CD4 lymphocytes of human whole blood (human IL-23R [1]): 0.0082 µg/mL
EC50 [2]: 0.0331 µg/mL
IC50, inhibition of human IL-23-inducible Kit-225 cell proliferation (human IL-23R [3]): 0.0067 µg/mL
EC50 [4]: 0.0218 µg/mL
